Measured values published in the supplement of paper PMC10567573.
± gives the standard deviation.

Test: protein stability index of a GFP-peptide fusion (GPS, HEK-293T) (PSI 1-6); higher = more stable
Conditions: c terminus: a fixed tail appended
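Note: 24-mer peptide tiles fused after GFP, lentivirally expressed, FACS-sorted into six equal bins by GFP/DsRed ratio, decoded by Illumina sequencing, PSI is the read-weighted mean bin number.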

Row | Sequence | protein stability index (treatment: DMSO) | protein stability index (treatment: MLN4924 1 uM, 8 h)
1 | PCAAAREGRLERRECGLAAPRFSF [IRX6] | 3.01 ± 0.21 | 2.89 ± 0.4
2 | PDFPSINMDPAGLDDEDDTSIGMP [RETREG3] | 5.49 ± 0.18 | 5.53 ± 0.11
3 | PFSECGEAVSDSTPFLTNHGAHKA [ZNF263] | 4.76 ± 0.24 | 4.93 ± 0.32
4 | PFVCPECGQPCSQKSGLIRHQKIH [ZNF649] | 4.65 ± 0.3 | 4.78 ± 0.3
5 | PGEQGGGKLVLSSLPKRLCLVCGD [ESRRA] | 2.79 ± 0.19 | 3.25 ± 0.29
6 | PGPASGPGPDTGPDSELSPCIPPG [SPAG8] | 5.4 ± 0.24 | 5.36 ± 0.24
7 | PGVFVLLACGTMSSTCGQLASYPL [SLC25A25] | 3.18 ± 0.3 | 2.66 ± 0.61
8 | PHSAKTEEHTTILRPSYTGLSSSS [CDC14A] | 4.4 ± 0.33 | 4.58 ± 0.2
9 | PIFVNSPTLDAPGGRALVVRKVPP [SMAD6] | 3.23 ± 0.059 | 3.34 ± 0.29
10 | PILRLLPQGISPVSQHWATWALYN [ZER1] | 2.78 ± 0.37 | 2.95 ± 0.34
11 | PISEKAKDLILRFCIDSENRIGNS [STK38L] | 2.04 ± 0.47 | 2.05 ± 0.41
12 | PKPCAGNQGTQITVEDLFYNIATR [MLH1] | 2.85 ± 0.32 | 2.97 ± 0.41
13 | PLFEDVQMLRKTVKDEAHQAQKDP [PPP2R5C] | 5.37 ± 0.22 | 5.3 ± 0.17
14 | PLGSPSPRPRRAKRFASLSRFVET [ADAMTS4] | 3.5 ± 0.28 | 3.41 ± 0.21
15 | PLHNSGLLSLDPVQDKTPLYSQLL [MED27] | 2.76 ± 0.27 | 2.92 ± 0.34
16 | PMYFFLGNLSVLDVGCISVTVPSM [OR3A1] | 2.65 ± 0.52 | 3.06 ± 0.65
17 | PPARGTLKTSNLPEELRKVFITYS [TRAF3IP2] | 2.53 ± 0.37 | 2.53 ± 0.12
18 | PPDKGEEQVNFCESSNDFGPYEGG [ZBTB22] | 5.53 ± 0.098 | 5.41 ± 0.26
19 | PPGSHLLYAKMIQKLADLRSLNEE [VDR] | 2.61 ± 0.11 | 2.67 ± 0.25
20 | PPPKTNLTPGQSDSAKREVKQKIS [FAN1] | 5.44 ± 0.24 | 5.35 ± 0.094
21 | PPPSRPSVAVPPPPPNRMYPPPPP [WASL] | 4.48 ± 0.2 | 4.49 ± 0.2
22 | PPSARHRAHPPQRPASSGGAHTLV [KCNA3] | 4.06 ± 0.42 | 4.1 ± 0.45
23 | PPTTPQNEEIRAVGRLKRERSMSE [MFF] | 4.82 ± 0.28 | 5.05 ± 0.14

Row | Sequence | protein stability index (treatment: DMSO) | protein stability index (treatment: MLN4924 1 uM, 8 h)
24 | PRAVFVLLEERRPADSAQLLSLNS [TFE3] | 2.29 ± 0.12 | 2.4 ± 0.2
25 | PSETGNTFVSGGCDKKAMVWDMRS [GNB5] | 3.93 ± 0.16 | 3.75 ± 0.26
26 | PSFCPVQPCFFQDISMEIPQEFQK [SCAMP3] | 3.64 ± 0.35 | 3.69 ± 0.21
27 | PTDYQVNIQIIEYEKKQTLGQNDT [BTBD1] | 3.76 ± 0.27 | 3.91 ± 0.13
28 | PTGRLPALVRWWNGIGAVLDFTHP [MYORG] | 2.15 ± 0.28 | 2.14 ± 0.033
29 | PVSLSASQSWHTESLPVSLGPESW [BCL2L13] | 3.37 ± 0.26 | 3.21 ± 0.11
30 | PVTKPLFPSAGQAQAAVQGPVGTD [ZNF207] | 5.15 ± 0.17 | 5.05 ± 0.11
31 | PYSFIEFDTFIQKTKKLYIDSRAR [SEC22B] | 2.38 ± 0.12 | 2.41 ± 0.25
32 | QALRRLRPRTRKVKSVSPQGNSVD [NCF4] | 4.32 ± 0.46 | 4.63 ± 0.26
33 | QAPPQDSSNKKEKKVLNHGYDDDN [DYRK1B] | 5.61 ± 0.16 | 5.51 ± 0.11
34 | QAREKELLELQSQQACTHTKETEQ [CCDC89] | 5.55 ± 0.21 | 5.61 ± 0.17
35 | QASSERLGLDNRLFGHPGLDMELG [ADAMTSL2] | 3.87 ± 0.12 | 4.02 ± 0.5
36 | QATCNVHKSAFNDWFSGHLNFQIE [FADS1] | 2.44 ± 0.28 | 2.48 ± 0.2
37 | QCRHTLEQHNWNIEAAVQDRLNEQ [FAF2] | 3.89 ± 0.17 | 3.87 ± 0.18
38 | QDHFHVFVGDLSPEITTEDIKAAF [TIA1] | 2.73 ± 0.54 | 3 ± 0.33
39 | QDLLKERQKDLKFLSEEEYWKLQI [CCNC] | 3.45 ± 0.13 | 3.67 ± 0.15
40 | QELDIKKNERLWLLDDSKTWWRVR [NCK2] | 2.37 ± 0.14 | 2.61 ± 0.28
41 | QEPMVPAKLGTQAEKDRRLKKKHQ [PPFIA4] | 5.32 ± 0.42 | 5.56 ± 0.11
42 | QEQNGRLQAELAAQEALREKAAAL [LRRC45] | 5.25 ± 0.21 | 5.31 ± 0.28
43 | QETLTNISAVNYDFDEEYFSNTSE [DAPK3] | 5.41 ± 0.26 | 5.41 ± 0.21
44 | QFCAQRFGRKDHLTRHTKKTHSQE [PLAGL1] | 4.07 ± 0.43 | 4.18 ± 0.27
45 | QFLFIYQLPFCGPNVIDNFLCDLY [OR4A15] | 3.04 ± 0.11 | 2.86 ± 0.38
